Assay results: patent US20140287419A1, “Compositions Having Dicamba Decarboxylase Activity and Methods of Use” (priority 2013, published 2014)

B1: SEQ ID NO:35: amidohydrolase, Burkholderia sp. CCGE1001 (protein)
chain: MAFKASRKIALEEHFAIDATVQDSAGFVPPSYWAELKRRLLDIHDRRIDEMDRNGVELMVLSLNAPTVQAVPNIKDAYDLSRRANDFLAEQIVKRPERFKGFAALPMQSPDLAARELERCVKELNFVGALVNGFSQVEESGTALYYDLPQYRQFWSVVQALDVPFYLHPRNPLPAHAPIYEGHPWLLGPTWAFGQETAVHALRLMGSGLFDEYPELKIILGHMGEGLPYSMWRIDNRNAWVETQPNYPAKKRIAEYFHKNFWLTTSGNFRTQTLIDAMLEIGSDRILFSTDWPFENVDHAAQWFDDAAISENDRIKIARTNAARLFKLEP
modifications: Burkholderia sp
B2: SEQ ID NO:34: amidohydrolase, Cupriavidus necator N-1 (protein)
chain: MAQGKIGLEEHFAIPETLNDSAGFVPGDYWKELSRRLLDIQDDRLRQMDENGMEMMLLSLNAPAVQAVPDRKQACELAVRANDFLAEQVSRRPDRFQALAALPLQDPDFATVELTRCVNELGMRGALVNGFSQIDTPDNVVYYDAPQYASFWAAVEKLDVPFYLHPRNPIASWAQIYDGHPWLLGPTWAFGQETAVHALRLMASGLFDRHPALQIVLGHLGEGLPYSLWRIDNRNAWVKAPKTHPAKKTFRHYFQQNFHLTTSGNFHNQTLIDAILEIGADRILFSTDWPFENIDHAAKWFDSASISEADRTKIGRTNAMKLFKLVA
modifications: Cupriavidus necator
B3: SEQ ID NO:33: amidohydrolase, Rhizobium leguminosarum bv. viciae 3841 (protein, listed as Rhizobium leguminosarum)
chain: MAQGKIALEEHFAIPETLQDSAGFVPGDYWKELSARLLDIQEKRLRLMDAHGIEKMILSLNAPAVQAIPDRAKALEISRRANDFLAEQCVKNPNRFLGFAALPLQDPDAATQELQRCVTTMGFVGALVNGFSQEGDGTTPLYYDLPQYRSFWAEVEKLNVPFYLHPRNPLPQDSRIYAGHSWLMGPTWAFAQETAVHALRLMGSGLFDEHPALRIIVGHMGEGLPYMMWRIDNRNAWVKVEKSYPAKRPIADYFNENFYITTSGNFRTQSLIDAMLEIGADRILFSADWPFENIDHAANWFDSATISEADRLKIGRTNAVSLFKLDR
B4: SEQ ID NO:43: amidohydrolase, Rhizobium leguminosarum bv. trifolii WSM2304 (protein, listed as Rhizobium leguminosarum)
chain: MAQGKIALEEHFAIPETLQDSAGFVPGDYWTELSARLLDIQDKRLRLMDTHGIEKMILSLNAPAVQAIPDKAKAVEISRRANDFLAEQCVKNPNRFLGFAALPLQDPDAATQELQRCVTTMGFVGALVNGFSQEGDGTTPLYYDLPQYRPFWAEVEKLDVPFYLHPRNPLPQDSRIYAGHSWLMGPTWAFAQETAVHALRLMGSGLFDEHPALRIIVGHMGEGLPYMMWRIDNRNAWVKVEKSYPAKRPIADYFNENFYITTSGNFRTQSLIDAMLEIGADRILFSADWPFENVDHAANWFDSATISEADRLKIGRTNAVSLFKLDR
B5: SEQ ID NO:44: amidohydrolase, Mycobacterium avium 104 (protein, listed as Mycobacterium avium)
chain: MARIITVEEHFQHPEVSARVAELTGPAVEGLAEFGNAFSLDPDSTARLGGNRLAHMDQVGIDVQVVSHGNGSPGTLQHPEAVELCRRVNNDLAAQIAENPDRFRGFATLPLYDPAAAAEELRRCVGDLGFVGALIAGSYDGLFLDDERFDPILTAAEAVDFPIYVHPGLPEAPVSQRYYAGSWPASVHMMFSGPAFGWHAEAGIHIVRLILSGALDRHPTLKLLSGHWGELAAFYLERLDETLGLLPTGLERAPSDYYRQQVWITPSGMYNQNQLNFMTAELGAQRIIYSEDFPYVVRDNVSTFLEQAGLSEADTHAIAHTNAEALLRI
B6: SEQ ID NO:31: reversible 2,6-dihydroxybenzoic acid decarboxylase, Agrobacterium sp. H13-3 (protein, listed as Agrobacterium sp.)
chain: MAQGKVALEEHFAIPETLQDSAGFVPGDYWKELQHRLLDIQDTRLKLMDAHGIETMILSLNAPAVQAIPDKTKAIEIARRANDVLAEECAKRPDRFLAFAALPLQDPDAATEELQRCVNDLGFVGALVNGFSQEGDGQTPLYYDLPQYRPFWGEVEKLDVPFYLHPRNPLPQDSRIYDGHPWLLGPTWAFAQETAVHALRLMASGLFDEHPRLNIILGHMGEGLPYMMWRIDHRNAWVKLPPRYPAKRRFMDYFNENFHITTSGNFRTQTLIDAILEIGADRILFSTDWPFENIDHASDWFNATSIAEADRVKIGRTNARRLFKLDGA
B7: SEQ ID NO:36: hypothetical protein AGRO_1970, Agrobacterium sp. ATCC 31749 (protein, listed as Agrobacterium sp.)
chain: MAQGKVALEEHFAIPETLQDSAGFVPGDYWTELQHRLLDIQDTRLKLMDAHGIETMILSLNAPAVQAIPDKTKAIEIARRANDALAEECAKRPNRFLAFAALPLQDPDAATQELQRCVNDLGFVGALVNGFSQEGDGQIPLYYDLPQYRPFWGEVEKLDVPFYLHPRNPLPQDSRIYDGHPWLLGPTWAFAQETAVHALRLMASGLFDEHPRLNIILGHMGEGLPYMMWRIDHRNAWVKLPPRYPAKRRFVDYFNENFHITTSGNFRTQTLIDAILEIGADRILFSTDWPFENIDHASDWFHATSIAEADRVKIGRTNARRLFKLDGR
B8: SEQ ID NO:28: 5-carboxyvanillate decarboxylase, Sphingomonas paucimobilis (protein, listed as Sphingomonas paucimobilis)
chain: MARLIATEEAVTFQPVVDALRAHSRTDDASLDMILVRDVYGDEPARPAMIGRLSDVTGERLAEMDSNGVDMHLLSLTAPGVQMFDAETGTRLARIANDLMAQTVAANPTRFAGLGTFAPQDPASAAREIERVATQLRLNGLVINSHTNDLYYDDPFFHPVFEAIEASGLALYIHPRAPSKQIDRAFRDYGMNSAIWGYGIETSTNAVRMILSGLFDRFPRLKIVLGHMGEAIPFWLWRLDYMHGNATTFGGAPKLKLKPSEYFRRNFAITTSGVESHAALRYSIEVLGPENVMWAIDYPYQPMAPAVQFIRTAPIPEDVKAMVAGGNAARIFRIT
B9: SEQ ID NO:30: o-pyrocatechuate decarboxylase, Enterobacter aerogenes KCTC 2190 (protein)
chain: MARGKIALEEHVSTPENNRLWDSTGEANRNGSEYMQDVERRLLDRSIQLEEMAQRNIDHVILSLTSPGAQSILDKAKAVSFARDTNDFIVDNYVKPNPDKFSAFATLALQNPEAAAEELERAVKKLGMKGALINGYTNVKDSEHGLYLDDESMLVFWDKVNELNVPVYLHPREPLEGPARGIYTGYESLIGSAWGFAQETAVHAIRLMMSGLFDRYPNLNLVLGHLGEGLVHMLPRTQHRLYRQRFGCGLGKAEKPLMHYLQNNFIVTTSGHFNTHSLNNAIEVMGADRVMFSVDYPYEDIHQACDWFDPLEMDEGLKEKIAWGNASRVFNIK
modifications: Enterobacter aerogenes

experiment: 14C assay with IPTG-induced recombinant E. coli cells (14CO2 capture from [14C]-carboxyl-labeled dicamba); conditions: E. coli cell assay, 108 sequences tested

Molecule | decarboxylation activity of dicamba
B1 | showed decarboxylation activity of dicamba
B2 | showed decarboxylation activity of dicamba
B3 | showed decarboxylation activity of dicamba
B4 | showed decarboxylation activity of dicamba
B5 | showed decarboxylation activity of dicamba
B6 | showed decarboxylation activity of dicamba
B7 | showed decarboxylation activity of dicamba
B8 | showed decarboxylation activity of dicamba
B9 | showed decarboxylation activity of dicamba
